The target in experiment [1] is T1, mouse CD200R1 protein (R&D systems, 2554-CD) (mouse, UniProt Q9ES57 26-238, limits assumed).
T1 construct: Bought; construct not described
T1 sequence (looked up): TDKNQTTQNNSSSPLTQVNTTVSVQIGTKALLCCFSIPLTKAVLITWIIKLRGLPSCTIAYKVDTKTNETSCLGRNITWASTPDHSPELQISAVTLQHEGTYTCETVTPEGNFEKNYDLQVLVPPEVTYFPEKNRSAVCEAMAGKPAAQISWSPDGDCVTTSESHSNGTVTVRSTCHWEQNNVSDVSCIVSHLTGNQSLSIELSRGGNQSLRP
Description: ELISA on coated mouse CD200R1.

For experiment [2], the target named is T2, human CD200RLa (Sino Biological, 11620-H08H) recombinant protein (human, UniProt Q6Q8B3 24-239).
T2 construct: Bought; construct not described
T2 sequence (looked up): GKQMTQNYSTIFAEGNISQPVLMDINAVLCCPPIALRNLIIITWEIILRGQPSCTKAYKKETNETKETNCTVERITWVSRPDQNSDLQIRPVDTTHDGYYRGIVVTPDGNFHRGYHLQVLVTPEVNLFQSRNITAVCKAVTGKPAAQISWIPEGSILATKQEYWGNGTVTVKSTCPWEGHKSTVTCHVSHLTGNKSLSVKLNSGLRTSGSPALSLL
Description: ELISA, plate-bound human CD200RLa (2 ug/mL), antibody 0.0192-300 nM, O.D 450 nm; panel 'recombinant human CD200RLa'. The method, boiled down: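 Plates coated overnight (16 h, 4° C) with human or cynomolgus CD200RLa recombinant protein, blocked with 3% skim milk; bound antibody detected by TMB colour development, reaction stopped before reading.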
(In general: An ELISA detects its analyte on a solid surface through an enzyme-linked reagent.)

Experiment [3] has as its target T1, mouse CD200R1 protein (R&D systems, …). Put plainly: ELISA on mouse CD200R1, O.D 450 nm, 0.0192-300 nM; panel 'P001_CD200R1 mouse 1'. As for the experimental part:
(§1) 96-well plates were coated with human CD200R1 (R&D systems, 3414-CD) and mouse CD200R1 protein (R&D systems, 2554-CD) at a concentration of 2 μg/mL at 4° C. for 16 hours and then were blocked with 3% skim milk.
(§2) Color was developed with a TMB substrate solution (Thermo Scientific, 34029, 1-Step™ TMB-ELISA Ultra Substrate Solution). The color reaction was stopped with stop solution (Invitrogen, SS04, ELISA Stop Solution). The absorbance was measured at an optical density of 450 nm.
(§3) The secondary engineered antibodies were evaluated by ELISA in the same manner as in Examples described above.

Experiment [4] has as its target T3, human CD200R1 recombinant protein (construct not stated) (human, UniProt Q8TD46 27-266, limits assumed).
T3 sequence (looked up): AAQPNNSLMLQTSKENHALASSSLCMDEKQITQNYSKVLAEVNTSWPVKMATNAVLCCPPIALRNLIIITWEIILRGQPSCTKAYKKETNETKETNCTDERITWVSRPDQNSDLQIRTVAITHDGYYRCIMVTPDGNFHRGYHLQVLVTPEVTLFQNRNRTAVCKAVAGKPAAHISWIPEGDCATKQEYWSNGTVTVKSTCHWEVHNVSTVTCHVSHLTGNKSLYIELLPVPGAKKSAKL
Put plainly: ELISA on human CD200R1, O.D 450 nm, 0.0192-300 nM; panel 'P001_CD200R1 human 1'. How it is done: as §1, §2, §3

The target of experiment [5] is T4, human CD200R1 with dual His-tags (human, UniProt Q8TD46 25-265).
T4 construct: Captured on the SPR chip by an anti-histidine antibody; also called hCD200R1-his; not shown: dual His-tags
T4 sequence (looked up): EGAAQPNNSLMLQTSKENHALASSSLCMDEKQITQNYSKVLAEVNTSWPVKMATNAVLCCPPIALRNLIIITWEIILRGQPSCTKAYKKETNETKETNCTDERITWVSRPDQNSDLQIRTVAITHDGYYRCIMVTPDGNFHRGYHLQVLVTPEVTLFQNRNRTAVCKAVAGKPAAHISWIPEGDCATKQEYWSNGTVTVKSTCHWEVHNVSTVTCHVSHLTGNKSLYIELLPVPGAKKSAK
Description: SPR (Biacore CM5), His-tagged antigen captured by anti-histidine antibody, antibody as analyte, 1:1 Langmuir fit. As for the experimental part:
(§4) For the experiment, 30 μg/mL of an anti-histidine antibody was conjugated to a CM5 biacore chip via an amine bond while allowing to flow at 10 μl/min (10,000 RU). Then, 0.25 μg/mL of human or cynomolgus CD200R1 with dual His-tags was captured onto the completed chip for 60 seconds, and the binding ability of each antibody was analyzed. All experiments were performed by association of antibodies for 120 seconds and dissociation of antibodies for 600 seconds. The resulting graphs were fitted using a 1:1 Langmuir binding kinetic model (FIG. 16), and the kinetics of each antibody were calculated.
On the technique in general: Surface plasmon resonance follows binding to a sensor surface in real time, without labels.

Experiment [6] has as its target T5, cynomolgus CD200R1 with dual His-tags (cynomolgus, UniProt G7NZT0 25-266).
T5 construct: Captured on the SPR chip by an anti-histidine antibody; also called CCD200R1-his; cCD200R1-his; not shown: dual His-tags
T5 sequence: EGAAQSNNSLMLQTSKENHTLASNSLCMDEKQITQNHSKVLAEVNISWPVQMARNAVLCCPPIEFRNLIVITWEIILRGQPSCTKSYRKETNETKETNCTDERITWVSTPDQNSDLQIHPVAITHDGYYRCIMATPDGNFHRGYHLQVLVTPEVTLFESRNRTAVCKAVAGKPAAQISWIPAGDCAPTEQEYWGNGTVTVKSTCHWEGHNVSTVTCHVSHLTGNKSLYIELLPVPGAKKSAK
The description is as above. As for the experimental part: as §4

Experiment [7] deals with T6, human CD200R1 expressed on cells (Jurkat-CD200R1, U937-CD200R1, HH cells) (human, UniProt Q8TD46 25-348).
T6 sequence (looked up): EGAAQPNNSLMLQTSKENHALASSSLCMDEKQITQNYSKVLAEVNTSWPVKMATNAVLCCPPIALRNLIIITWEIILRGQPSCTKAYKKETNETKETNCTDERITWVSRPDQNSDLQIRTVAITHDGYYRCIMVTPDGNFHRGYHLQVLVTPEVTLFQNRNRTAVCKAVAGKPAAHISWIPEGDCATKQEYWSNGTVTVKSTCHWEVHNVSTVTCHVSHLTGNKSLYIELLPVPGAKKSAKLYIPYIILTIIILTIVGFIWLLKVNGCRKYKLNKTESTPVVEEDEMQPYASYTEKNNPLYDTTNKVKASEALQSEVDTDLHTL
Description: cell-based or functional assay.

Experiment [8] concerns the target T3, human CD200R1 recombinant protein …. Put plainly: ELISA on human CD200R1, normalized absorbance at 450 nm, 0.0192-300 nM; panel 'Human CD200R1'.
In experiment [9] the target is T6, human CD200R1 expressed on cells …. Put plainly: flow cytometry, U937-CD200R cells. As for the experimental part:
(§5) Two additional wells were treated with 10 μl of mouse IgG1K (BD, #555751) and 5 μl of commercial CD200R1 antibody (Biolegend, #329308) to determine CD200R1 expression on the cell line surface for cell quality control.
(§6) The antibodies were serially diluted 10-fold from a maximum concentration of 100 nM to 10 nM, 1 nM, […], and were added to the pre-seeded cells. After reaction for 1 hour at 4° C., the cells were treated with Alexa-647 goat anti-human IgG (H+L) cross-adsorbed secondary antibody (Invitrogen, #A21445) and incubated for an additional 30 minutes at 4° C. After washing twice with FACS buffer, flow cytometry was performed using a Novocyte Flow cytometer (Agilent). Using GraphPad Prism software, the EC₅₀ was determined using a nonlinear graph model of log (agonist) vs. response-variable slope, as shown in Table 32.

For experiment [10] the target is unchanged. Put plainly: flow cytometry, HH cells. How it is done:
as §5, §6

Experiment [11] shares this target. Description: cell-based or functional assay. This is another data set of the same source.
Experiment [12] has the same target. Put plainly: flow cytometry, Jurkat-CD200R cells. As for the experimental part:
as §5, §6
A general note: Flow cytometry measures light scatter and fluorescence of single cells or particles in a stream.

Another experiment concerns the target T7, Hybrid CD200R1 MH (mouse;human, UniProt Q9ES57;Q8TD46).
T7 construct: single domain; mouse D1 over human D2; also called MH hybrid domain; P001 MH domain
T7 sequence (hybrid extracellular part, looked up): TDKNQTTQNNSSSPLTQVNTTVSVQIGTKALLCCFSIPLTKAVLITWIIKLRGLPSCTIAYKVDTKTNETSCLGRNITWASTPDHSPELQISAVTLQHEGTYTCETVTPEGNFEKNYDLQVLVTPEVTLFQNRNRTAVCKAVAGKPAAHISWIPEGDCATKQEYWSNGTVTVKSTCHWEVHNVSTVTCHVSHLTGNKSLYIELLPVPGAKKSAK
Description: ELISA, plate-bound MH hybrid (1 ug/mL), antibody 0.0192-300 nM, O.D 450 nm; panel 'P001 MH domain-1)'. How it is done: Recombinant proteins were produced from the extracellular Ig-like V-type domain and Ig-like C2-type domain of human CD200R1, each designed as human-mouse (HM hybrid domain) and mouse-human (MH hybrid domain) recombinant proteins. A 96-well plate was coated at a concentration of 1 μg/mL with each protein at 4° C. for 16 hours and blocked with 3% skim milk. […] After color development with TMB substrate solution (Thermo Scientific, 34029, 1-Step™ Ultra TMB-ELISA Substrate Solution), the color reaction was stopped with a stop solution (Invitrogen, SS04, ELISA Stop Solution), and the absorbance was measured at an O.D. of 450 nm.

Broadly, the EC50 (read off the curve) is the concentration needed to bring the measured effect to its halfway point. Usually Kd stands for the free concentration of one partner at which half of the binding sites on the other are occupied at equilibrium, for simple one-to-one binding. The low end stands for tighter binding, the high end for weaker binding. The term koff denotes the rate constant with which the complex falls apart. Read a high koff as fast dissociation. The kon is the rate constant with which the complex forms. As usually defined, the EC50 is the concentration giving half of the maximal effect.

Several values for one entry are separate records, joined by “and”; a condition that tells them apart may be missing. Equal values may be shown once.

B1: P001016 (IgG) (antibody, V domains shown)
VH: EVQLLESGGGLVQPGGSLRLSCAASGFTFSGYDMSWVRQAPGKGLEWVSGISYDGGSKYYADSVKGRFTISRDNSKNTLYLQMNSLRAEDTAVYYCAKDGYPLGAYYFDYWGQGTLVTVSS
VL: QSVLTQPPSASGTPGQRVTISCSVSSSNIGSNYVSWYRQLPGTAPKLLIYDDSKRPSGVPDRFSGSKSGTSASLAISGLRSEDEADYYCGTWDASLNGYVFGGGTKLTVL
As to B1, the binding result in experiment [1] is reported as “no binding (tested: 300 nM (highest concentration tested))”.

B2: P001018v26 (antibody, V domains shown)
VH: QVQLVQSGAEVKKPGASVKVSCKASGYTFTSYVMHWVRQAPGQGLEWMGYINPYNDDTNYNEKFKGRVTMTRDTSTSTVYMELSSLRSEDTAVYYCAREDYYGSRWGTWGQGTLVTVSS
VL: DIVLTQSPASLAVSPGQRATITCRASKSVSTSGYSYMHWYQQKPGQPPKLLIYLASNLESGVPARFSGSGSGTDFTLTINPVEANDTANYYCQHSHELLTFGQGTKVEIK
notes: H3-Y102T, L3-R92H
Consider B2, for which the results for the binding result in experiment [2] and in experiment [3] were “no binding (tested: 300 nM)” and “binds”, respectively. In experiment [4], the concentration giving a half-maximal response (EC50 (read off the curve)) is ~2 nM and ~4 nM.

B3: P001009v1 (antibody, V domains shown)
VH: EVQLLESGGGLVQPGGSLRLSCAASGFTFSSYDMSWVRQAPGKGLEWVSWISHGGGSIYYADSVKGRFTISRDNSKNTLYLQMNSLRAEDTAVYYCARDAPAYSAPLFDYWGQGTLVTVSS
VL: QSVLTQPPSASGTPGQRVTISCSGSSSNIGNNAVNWYQQLPGTAPKLLIYYDKNRPSGVPDRFSGSKSGTSASLAISGLRSEDEADYYCAAWDDRLSGYVFGGGTKLTVL
notes: P001009 with LC S52K and S94R (Kabat); also called P019001v1; P0001009v1
Turning to B3, the values for the Kd in [5] and in [6] were 0.021 nM and 0.264 nM, respectively. In addition, the koff in experiment [5] came out at 0.0001 s⁻¹; in experiment [6], 0.00138 s⁻¹. Moreover, the kon in experiment [5] was determined as 4.77e+06 M⁻¹ s⁻¹; in experiment [6], 5.23e+06 M⁻¹ s⁻¹. Moreover, the “IC50 (nM) of IL-6 inhibition, LPS-treated U937-CD200R1 cells” value in experiment [7] came to 0.1 nM. Moreover, the “IC50 (nM) of TNF-α inhibition, LPS-treated U937-CD200R1 cells” value in [7] is 0.18 nM. For the same molecule, in experiment [8], the “EC50 (read off the curve)” value was about 3 nM. Moreover, the EC50 was 0.3 nM in [9], 0.16 nM in experiment [10] and 0.17 nM in [12]. For the same molecule, in experiment [11], the “EC50 (nM), degree of signal transduction by the Dok2 protein” value was 1.28 nM.

B4: P001001 (IgG) (antibody, V domains shown)
VH: EVQLLESGGGLVQPGGSLRLSCAASGFTFSSYDMHWVRQAPGKGLEWVSRISFTGSTSYNPSLKSRFTISRDNSKNTLYLQMNSLRAEDTAVYYCARDTWWEGYFDLWGQGTLVTVSS
VL: QSVLTQPPSASGTPGQRVTISCSGSSSNIGNNHVSWYQQLPGTAPKLLIYDDTDRLTSVPNRFSGSKSGTSASLAISGLRSEDEADYYCGTWDSSLSAYVFGGGTKLTVL
For B4, the results for the binding result (with Hybrid CD200R1 MH; in experiment [1]; in [2]) were “no binding (tested: 300 nM)”, “no binding (tested: 300 nM (highest concentration tested))” and “no binding (tested: 300 nM)”, respectively.

(Values after patent US20260263521A1 (AIMED BIO, published 2026).)
